Laboratory results published in patent US20240358826A1 (ORIONIS BIOSCIENCES, published 2024).
Blank lines part the entries; values can stand above or below the binder they belong to.

Target: human CD8 alpha (human, UniProt P01732 22-235)
Assay: cell-based or functional assay

Chain of human CD8 alpha (P01732 22-235): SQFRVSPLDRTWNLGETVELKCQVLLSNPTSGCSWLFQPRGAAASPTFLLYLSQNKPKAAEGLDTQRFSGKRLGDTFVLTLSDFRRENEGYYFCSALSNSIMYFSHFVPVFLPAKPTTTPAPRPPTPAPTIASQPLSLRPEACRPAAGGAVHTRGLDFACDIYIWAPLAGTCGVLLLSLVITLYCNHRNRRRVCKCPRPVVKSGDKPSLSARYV

EC50, CD8+ HekBlue-IL-1β cells (SEAP): ~0.3 ng/mL
B1: IL1α delta 1-6_20GGS_hCD8 VHH 1CDA65_1GGS_9xhis (other)
chain: LSNVKYNFMRIIKYEFILNDALNQSIIRANDQYLTAAALHNLDEAVKFDMGAYKSSKDDAKITVILRISKTQLYVTAQDEDQPVLLKEMPEIPKTITGSETNLLFFWETHGTKNYFTSVAHPNLFIATKQDYWVCLAGGPPSITDFQILENQAGGSGGSGGSGGSGGSGGSGGSGGSGGSGGSGGSGGSGGSGGSGGSGGSGGSGGSGGSGGSQVQLQESGGGLVQPGGSLRLSCAASGSIFSINVMGWYRQTPGKERELVAKITNFGITSYADSAQGRFTISRGNAKNTVYLQMNSLKPEDTAVYYCNLDTTGWGPPPYQYWGQGTQVTVSSVDGGSHHHHHHHHH

EC50, CD8+ HekBlue-IL-1β cells (SEAP): ~0.3 ng/mL
B2: hCD8 VHH 1CDA65_20GGS_IL1α delta 1-6_1GGS_9xhis (other)
chain: QVQLQESGGGLVQPGGSLRLSCAASGSIFSINVMGWYRQTPGKERELVAKITNFGITSYADSAQGRFTISRGNAKNTVYLQMNSLKPEDTAVYYCNLDTTGWGPPPYQYWGQGTQVTVSSVDGGSGGSGGSGGSGGSGGSGGSGGSGGSGGSGGSGGSGGSGGSGGSGGSGGSGGSGGSGGSLSNVKYNFMRIIKYEFILNDALNQSIIRANDQYLTAAALHNLDEAVKFDMGAYKSSKDDAKITVILRISKTQLYVTAQDEDQPVLLKEMPEIPKTITGSETNLLFFWETHGTKNYFTSVAHPNLFIATKQDYWVCLAGGPPSITDFQILENQAGGSHHHHHHHHH
